Patent US6476188 (ROCKEFELLER UNIVERSITY, dated 2002)

T1: GST-PER 530-640 fusion protein (Drosophila, UniProt P07663 530-640)
T1 construct: range 530-640; Constructed as described in Saez and Young 1996 (cited); Immobilized on glutathione agarose beads; also called aa 530-640 of PER; not shown: Glutathione-S-transferase (GST) fusion partner
T1 sequence (looked up): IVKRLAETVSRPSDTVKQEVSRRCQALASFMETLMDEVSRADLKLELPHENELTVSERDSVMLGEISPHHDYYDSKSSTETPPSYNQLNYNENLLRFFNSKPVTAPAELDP


Key:
[1] = target: T1, GST-PER 530-640 fusion protein; assay: GST pull-down, 35S-labeled in vitro translated DBT, SDS-PAGE and autoradiography
From the text: (§1) The staining confirms that similar amounts of GST and GST-PER fusion proteins were used in the assay. Arrow indicates BSA present in all the washes. (Right) GST alone and the indicated GST-PER fusions were used to bind in vitro translated, ^35S-labeled DBT protein. Labeled DBT proteins that bound to the indicated GST-PER fusions were visualized by SDS-PAGE and autoradiography. […] For hs-gfp-dbt, GFP was fused to the amino terminus of DBT.

[2] = target: T2, GST (Glutathione-S-transferase) alone (UniProt P08515 1-218 = GST); assay: as above
T2 construct: Control in the pull-down assay
From the text: as §1

[3] = target: mouse PERIOD1 (mPER1), in vitro translated, 35S-methionine-labeled (mouse, UniProt O35973 1-1291, limits assumed); assay: in vitro binding, S-agarose-bound recombinant CK1ε with 35S-labeled in vitro translated mPER1
Method: (§2) Half of the bound beads were then added to a kinase reaction as described above and in Example 3 below, but without c-casein or phosvitin, and incubated at 37° C. for 5 minutes. […] Reactions were separated on 12% SDS-PAGE gels, dried and exposed to phosphor screens. Following exposure to detect both the ^35S and ^32P signals, dried gels were covered with two layers of exposed X-OMAT film to block the ^35S signal. […] PER signal is indicated by filled triangles.
(§3) Per binding studies: For binding assays, mPER1 and mPER2 were synthesized from cDNAs cloned in plasmids by coupled in vitro transcription/translation reactions using ^35S-methionine in a total reaction volume of 50 μl (TNT T7 Coupled Reticulocyte Lysate System, Promega). Recombinant CK1ε was purified from *E. coli* by capture on S-agarose beads as described above. To reduce non-specific binding, 20 μl of in vitro-translated product was mixed with 50 μl of plain S-agarose beads in HND buffer (20 mM HEPES, pH 7.5, 100 mM KCl, 10% glycerol, 0.4% NP40, 1 mM DTT) with 5% BSA. This mixture was incubated at room temperature with shaking for 1 hour. Following incubation, the mixture was centrifuged at 2500 rpm for 5 minutes and the resulting supernatant was divided into two equal aliquots. […]

[4] = target: mouse PERIOD2 (mPER2), in vitro translated, 35S-methionine-labeled (mouse, UniProt O54943 1-1257, limits assumed); assay: in vitro binding, S-agarose-bound recombinant CK1ε with 35S-labeled in vitro translated mPER2
Method: as §2, §3

Chain of mouse PERIOD2 (mPER2), in vitro translated, 35S-methionine-labeled (O54943 whole entry): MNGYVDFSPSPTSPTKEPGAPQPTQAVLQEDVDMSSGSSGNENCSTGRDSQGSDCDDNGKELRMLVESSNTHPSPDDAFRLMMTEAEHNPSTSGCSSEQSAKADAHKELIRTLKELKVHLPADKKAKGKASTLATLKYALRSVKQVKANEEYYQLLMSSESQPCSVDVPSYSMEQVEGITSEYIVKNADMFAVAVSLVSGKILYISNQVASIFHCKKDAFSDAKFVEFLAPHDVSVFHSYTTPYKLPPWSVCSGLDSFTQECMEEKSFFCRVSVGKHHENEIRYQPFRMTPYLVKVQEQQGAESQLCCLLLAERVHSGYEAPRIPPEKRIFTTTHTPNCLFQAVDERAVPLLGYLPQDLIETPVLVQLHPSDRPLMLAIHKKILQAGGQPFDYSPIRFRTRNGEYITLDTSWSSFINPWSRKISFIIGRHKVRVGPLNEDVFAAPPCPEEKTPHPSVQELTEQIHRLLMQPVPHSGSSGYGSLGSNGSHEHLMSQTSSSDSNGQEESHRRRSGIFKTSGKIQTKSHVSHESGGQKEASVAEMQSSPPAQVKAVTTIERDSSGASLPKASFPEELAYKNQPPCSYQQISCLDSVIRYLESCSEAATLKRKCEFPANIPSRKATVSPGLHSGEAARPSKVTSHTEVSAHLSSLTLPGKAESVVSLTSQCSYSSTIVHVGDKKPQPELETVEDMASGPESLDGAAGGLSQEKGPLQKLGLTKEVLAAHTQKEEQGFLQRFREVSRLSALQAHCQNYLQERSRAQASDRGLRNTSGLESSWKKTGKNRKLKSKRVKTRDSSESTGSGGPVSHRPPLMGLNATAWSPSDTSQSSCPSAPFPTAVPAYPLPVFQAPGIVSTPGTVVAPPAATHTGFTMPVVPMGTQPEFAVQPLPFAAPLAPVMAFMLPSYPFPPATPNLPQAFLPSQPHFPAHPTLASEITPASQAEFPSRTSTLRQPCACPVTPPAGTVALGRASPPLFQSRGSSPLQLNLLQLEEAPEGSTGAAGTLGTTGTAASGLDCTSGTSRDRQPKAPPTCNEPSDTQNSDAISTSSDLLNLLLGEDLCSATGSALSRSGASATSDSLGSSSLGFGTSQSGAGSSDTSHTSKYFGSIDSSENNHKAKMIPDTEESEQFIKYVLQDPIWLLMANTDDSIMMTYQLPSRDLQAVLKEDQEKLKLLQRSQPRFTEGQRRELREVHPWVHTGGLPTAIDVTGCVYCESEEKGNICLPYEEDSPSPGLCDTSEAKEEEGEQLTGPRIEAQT
Chain of mouse PERIOD1 (mPER1), in vitro translated, 35S-methionine-labeled (O35973 whole entry): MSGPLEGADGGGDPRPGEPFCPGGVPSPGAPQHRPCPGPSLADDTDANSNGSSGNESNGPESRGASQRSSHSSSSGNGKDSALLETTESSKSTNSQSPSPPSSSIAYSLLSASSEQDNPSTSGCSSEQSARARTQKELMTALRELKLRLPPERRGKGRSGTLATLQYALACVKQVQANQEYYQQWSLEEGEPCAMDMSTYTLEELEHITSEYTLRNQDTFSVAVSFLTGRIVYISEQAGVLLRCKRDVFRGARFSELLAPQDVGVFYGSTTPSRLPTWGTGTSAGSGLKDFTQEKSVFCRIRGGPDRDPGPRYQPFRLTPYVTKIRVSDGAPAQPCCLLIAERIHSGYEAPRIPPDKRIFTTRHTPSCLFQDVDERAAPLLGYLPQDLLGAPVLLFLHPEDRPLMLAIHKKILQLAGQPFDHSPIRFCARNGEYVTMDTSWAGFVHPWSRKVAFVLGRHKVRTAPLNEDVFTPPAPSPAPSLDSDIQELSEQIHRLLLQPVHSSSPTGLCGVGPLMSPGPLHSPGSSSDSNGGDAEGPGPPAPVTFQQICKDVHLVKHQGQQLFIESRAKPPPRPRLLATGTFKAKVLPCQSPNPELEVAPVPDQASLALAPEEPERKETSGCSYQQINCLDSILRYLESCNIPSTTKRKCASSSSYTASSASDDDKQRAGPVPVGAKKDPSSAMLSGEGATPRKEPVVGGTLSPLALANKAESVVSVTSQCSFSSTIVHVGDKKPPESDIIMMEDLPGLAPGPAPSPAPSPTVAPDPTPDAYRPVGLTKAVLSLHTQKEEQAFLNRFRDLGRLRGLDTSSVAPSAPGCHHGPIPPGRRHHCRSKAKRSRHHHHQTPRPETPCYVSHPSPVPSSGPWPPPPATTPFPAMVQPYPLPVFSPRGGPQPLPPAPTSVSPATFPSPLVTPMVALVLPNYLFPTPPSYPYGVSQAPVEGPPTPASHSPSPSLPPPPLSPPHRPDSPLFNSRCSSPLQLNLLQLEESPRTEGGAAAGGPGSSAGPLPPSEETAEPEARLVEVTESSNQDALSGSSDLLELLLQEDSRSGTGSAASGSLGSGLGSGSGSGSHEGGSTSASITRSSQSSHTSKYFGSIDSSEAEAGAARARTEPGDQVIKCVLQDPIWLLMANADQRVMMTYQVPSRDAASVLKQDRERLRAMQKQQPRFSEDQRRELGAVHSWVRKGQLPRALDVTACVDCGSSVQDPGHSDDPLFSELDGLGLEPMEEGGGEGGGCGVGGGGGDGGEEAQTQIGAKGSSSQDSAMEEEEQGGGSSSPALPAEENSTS
T2 sequence (P08515 whole entry): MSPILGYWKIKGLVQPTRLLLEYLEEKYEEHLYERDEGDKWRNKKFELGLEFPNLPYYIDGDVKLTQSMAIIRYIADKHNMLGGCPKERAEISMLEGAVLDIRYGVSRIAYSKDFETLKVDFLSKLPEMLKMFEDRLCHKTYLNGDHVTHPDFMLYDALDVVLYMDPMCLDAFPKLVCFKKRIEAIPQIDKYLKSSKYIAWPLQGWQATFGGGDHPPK

Binder | binding result [1] | binding result [2] | binding result [3] | binding result [4]
DOUBLETIME protein (DBT), Drosophila, in vitro translated from dbt cDNA P12, 35S-labeled (enzyme, In vitro translated, 35S-labeled; about 46 kDa by SDS-PAGE; the open reading frame predicts 440 aa; also called Drosophila CK1ε) MELRVGNKYRLGRKIGSGSFGDIYLGTTINTGEEVAIKLECIRTKHPQLHIESKFYKTMQGGIGIPRIIWCGSEGDYNVMVMELLGPSLEDLFNFCSRRFSLKTVLLLADQMISRIDYIHSRDFIHRDIKPDNFLMGLGKKGNLVYIIDFGLAKKFRDARSLKHIPYRENKNLTGTARYASINTHLGIEQSRRDDLESLGYVLMYFNLGALPWQGLKAANKRQKYERISEKKLSTSIVVLCKGFPSEFVNYLNFCRQMHFDQRPDYCHLRKLFRNLFHRLGFTYDYVFDWNLLKFGGPRNPQAIQQAQDGADGQAGHDAVAAAAAVAAAAAASSHQQQQHKVNAALGGGGGSRAQQQLQGGQTLAMLGGNGGGNGSQLIGGNGLNMDDSMAATNSSRPPYDTPERRPSIRMRQGGGGGGGGVGVGGMQSGGGGGGVGNAK | no binding | no binding | – | –
recombinant wild-type hamster CK1ε with N-terminal S•Tag and His-Tag fusions, captured on S-protein agarose (enzyme, Full-length cDNA expressed in E. coli BL21(DE3)pLysS; The preparation holds both autophosphorylated and unphosphorylated forms; also called wild-type CK1ε; WT; not shown: N-terminal S•Tag (15 amino acids) and His-Tag fusion from the pET-30 LIC vector) MELRVGNKYRLGRKIGSGSFGDIYLGANIASGEEVAIKLECVKTKHPQLHIESKFYKMMQGGVGIPSIKWCGAEGDYNVMVMELLGPSLEDLFNFCSRKFSLKTVLLLADQMISRIEYIHSKNFIHRDVKPDNFLMGLGKKGNLVYIIDFGLAKKYRDARTHQHIPYRENKNLTGTARYASINTHLGIEQSRRDDLESLGYVLMYFNLGSLPWQGLKAATKRQKYERISEKKMSTPIEVLCKGYPSEFSTYLNFCRSLRFDDKPDYSYLRQLFRNLFHRQGFSYDYVFDWNMLKFGAARNPEDVDRERREHEREERMGQLRGSATRALPPGPPTGATANRLRSAAEPVASTPASRIQQAGNTSPRAISRADRERKVSMRLHRGAPANVSSSDLTGRQEVSRISASQTSVPFDHLGK | – | – | binds | binds
recombinant tau mutant hamster CK1ε (Arg178Cys) with N-terminal S•Tag and His-Tag fusions, captured on S-protein agarose (enzyme, Full-length tau cDNA expressed in E. coli; Arg #178 of the wild-type protein is replaced by cysteine; also called tau CK1ε; tau mutant enzyme; not shown: N-terminal S•Tag (15 amino acids) and His-Tag fusion from the pET-30 LIC vector) MELRVGNKYRLGRKIGSGSFGDIYLGANIASGEEVAIKLECVKTKHPQLHIESKFYKMMQGGVGIPSIKWCGAEGDYNVMVMELLGPSLEDLFNFCSRKFSLKTVLLLADQMISRIEYIHSKNFIHRDVKPDNFLMGLGKKGNLVYIIDFGLAKKYRDARTHQHIPYRENKNLTGTACYASINTHLGIEQSRRDDLESLGYVLMYFNLGSLPWQGLKAATKRQKYERISEKKMSTPIEVLCKGYPSEFSTYLNFCRSLRFDDKPDYSYLRQLFRNLFHRQGFSYDYVFDWNMLKFGAARNPEDVDRERREHEREERMGQLRGSATRALPPGPPTGATANRLRSAAEPVASTPASRIQQAGNTSPRAISRADRERKVSMRLHRGAPANVSSSDLTGRQEVSRISASQTSVPFDHLGK | – | – | binds | binds
